The term EC50 denotes the concentration giving half of the maximal effect. Low readings indicate greater potency, high ones weaker potency.

Assay [1] deals with T1, Macaca mulatta CD27 (mmCD27) (Macaca mulatta (rhesus) / Macaca …, UniProt P26842 21-260 (human entry)).
T1 construct: also called Rhesus CD27; rhesus monkey CD27
T1 chain: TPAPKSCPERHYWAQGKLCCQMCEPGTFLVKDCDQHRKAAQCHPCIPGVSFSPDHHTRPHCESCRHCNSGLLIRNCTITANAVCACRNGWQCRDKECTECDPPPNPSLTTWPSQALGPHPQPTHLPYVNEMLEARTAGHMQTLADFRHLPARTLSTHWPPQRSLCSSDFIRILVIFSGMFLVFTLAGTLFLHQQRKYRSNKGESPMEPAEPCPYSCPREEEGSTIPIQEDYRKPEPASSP
The assay is described as follows: cell ELISA on CHO-K1 transfectants (selection of the clone). For orientation: ELISA stands for enzyme-linked immunosorbent assay.
Method: (§1) On day eight, supernatants were screened by cell-ELISA for reactivity to hCD27 as described above. In addition, the hCD27-reactive supernatants were tested for binding to Macaca Mulatta CD27 (mmCD27) expressed on CHO-K1 cells. […] In the cell-ELISA, all incubation steps were followed by a wash step with PBST (PBS with 0.01% Tween 20). Parental CHO-K1, CHO-K1.hCD27, or CHO-K1.mmCD27 cells were seeded (40,000 cells/well) in tissue culture plates and incubated overnight at 37° C. The next day, culture medium was removed and cells were incubated for one hour with (dilutions of) B-cell supernatants at 37° C. […] Subsequently, cells were washed 6 times with PBST and anti-hCD27 immunoreactivity was visualized with 100 μl TMB Stabilized Chromagen (Invitrogen, cat. no. SB02). Reactions were stopped with 100 μl 0.5 M H₂SO₄ and absorbances were read at 460 and 620 nm.
(§2) Hybridoma supernatants were tested in Cell-ELISA experiments for binding to CHO-K1.mmCD27 or CHO-K1 cells expressing hCD27 (A59T), as described above. […] A serial dilution of the supernatants was added.

For assay [2], the target named is T2, human CD27 (A59T) (human, UniProt P26842 21-260).
T2 construct: also called hCD27 (A59T); human CD27 variant p.Ala59Thr
Described as above.
Method: as §1, §2

The target in assay [3] is T3, human CD27 (human, UniProt P26842 21-260).
T3 construct: also called hCD27; HsCD27
Kind of assay: flow cytometry MFI, CD8+ T cells of human PBMC, N=2 donors. (A flow cytometer gives signals particle by particle.)
Method: (§3) Labeled cells were washed by re-suspending them in 150 ul of staining buffer (SB) followed by centrifugation at 300 g for 5 minutes. Cells were then resuspended in 100 ul of SB containing primary anti-CD27 antibodies at various concentrations, incubated in the dark at 4° C. for 30 minutes, followed by washing and centrifugation steps as previously described. […] Cells were incubated for 30 minutes at 4° C. in the dark, followed by washing and centrifugation steps. Next, cells were stained with a cocktail of phenotypic antibodies for surface markers (CD3, CD4, CD8, CD11b) and incubated for 30 minutes at 4° C. in the dark, followed by washing and centrifugation steps. […] Samples were acquired in a LSR-Fortessa flow cytometer (BD Biosciences) using the high throughput sampler and data analyzed by FlowJo software (Tree Star Inc).

The target of assay [4] is T4, Q41A.
T4 construct: also called hCD27 Q41A
T4 receptor chain: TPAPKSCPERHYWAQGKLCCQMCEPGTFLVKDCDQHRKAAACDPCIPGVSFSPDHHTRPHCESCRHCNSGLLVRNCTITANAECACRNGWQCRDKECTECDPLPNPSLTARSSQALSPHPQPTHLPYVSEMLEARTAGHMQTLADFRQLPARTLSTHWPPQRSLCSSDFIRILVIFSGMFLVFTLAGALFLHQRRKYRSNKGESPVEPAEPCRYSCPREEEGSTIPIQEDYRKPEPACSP
Kind of assay: flow cytometry on CHO-K1 transfectants, right sub-column.
Method: (§4) The hCD27 variants that were tested are listed. Amino acids correspond to the UniProt P26842-1 sequence. Amino acids 1-20 constitute the signal peptide. Binding is expressed as the geometric mean of the FITC signal, relative to antibody binding to hCD27, which was set at 100%.
(§5) The ability of several anti-hCD27 antibodies to bind to a series of hCD27 alanine mutants was determined using CHO-K1 cells, transiently transfected pCI-neo empty vector, pCI-neo.hCD27 and several pCI-neo.CD27Ala mutant constructs.
(§6) Detached cells were transferred to 96 wells round-bottomed well plates at approximately 1.2×10⁵ cells/well. After spinning down the cells, discarding the supernatants and re-suspending the cells in the residual volume, the primary antibodies were added and incubated for 30 minutes at 4° C. Cells were washed three times with DPBS/BSA 1%, followed by centrifugation, discarding of the supernatants and re-suspension in the residual volume. […] After washing once, antibody binding was detected using the HTS plate reader (FACS Canto II) and FlowJo software for data analysis. Debris, dead cells and doublets were excluded from the analysis. Binding was expressed as the geometric mean of the FITC signal, relative to antibody binding to hCD27, which was set at 100%.

In assay [5] the target is T5, D32A.
T5 construct: also called hCD27 D32A
T5 receptor chain: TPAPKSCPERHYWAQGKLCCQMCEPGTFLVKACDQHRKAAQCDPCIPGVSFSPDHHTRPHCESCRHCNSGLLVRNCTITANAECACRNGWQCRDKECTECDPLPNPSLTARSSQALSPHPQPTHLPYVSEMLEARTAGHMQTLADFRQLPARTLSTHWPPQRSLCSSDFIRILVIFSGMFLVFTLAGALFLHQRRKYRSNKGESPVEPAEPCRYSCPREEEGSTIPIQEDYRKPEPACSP
The description is as above.
Method: as §4, §5, §6

The target in assay [6] is T6, G16A.
T6 construct: also called hCD27 G16A
T6 receptor chain: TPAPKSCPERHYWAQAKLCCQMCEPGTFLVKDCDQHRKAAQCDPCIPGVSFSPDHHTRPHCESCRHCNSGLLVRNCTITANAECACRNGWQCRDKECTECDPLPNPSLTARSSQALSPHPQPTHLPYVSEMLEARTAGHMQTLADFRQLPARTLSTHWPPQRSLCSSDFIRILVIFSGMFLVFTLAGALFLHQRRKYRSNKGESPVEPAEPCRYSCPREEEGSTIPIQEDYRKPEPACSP
Described as above.
Method: as §4, §5, §6

The target of assay [7] is T3, human CD27. The assay is described as follows: flow cytometry MFI, CD4+ T cells of human PBMC, N=2 donors.
Method: as §3
For assay [8], the target named is T7, R37A.
T7 construct: also called hCD27 R37A
T7 receptor chain: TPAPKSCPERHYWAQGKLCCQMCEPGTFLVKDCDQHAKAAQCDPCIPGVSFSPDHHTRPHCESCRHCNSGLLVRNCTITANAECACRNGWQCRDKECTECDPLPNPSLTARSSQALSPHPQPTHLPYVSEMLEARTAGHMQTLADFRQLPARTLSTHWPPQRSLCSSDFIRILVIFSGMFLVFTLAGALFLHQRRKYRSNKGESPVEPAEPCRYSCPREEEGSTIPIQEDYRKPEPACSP
Kind of assay: flow cytometry on CHO-K1 transfectants, left sub-column, cell hatched (loss of binding).
Method: as §5, §6

The target in assay [9] is T8, H36A.
T8 construct: also called hCD27 H36A
T8 receptor chain: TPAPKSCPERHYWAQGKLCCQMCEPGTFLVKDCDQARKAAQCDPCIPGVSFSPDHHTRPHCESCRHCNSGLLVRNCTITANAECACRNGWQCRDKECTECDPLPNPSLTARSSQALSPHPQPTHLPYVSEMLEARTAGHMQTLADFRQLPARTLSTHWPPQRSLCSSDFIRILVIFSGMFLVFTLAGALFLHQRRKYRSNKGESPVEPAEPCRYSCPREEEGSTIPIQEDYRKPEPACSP
The description is as above.
Method: as §5, §6

In assay [10] the target is T9, K38A.
T9 construct: also called hCD27 K38A
T9 receptor chain: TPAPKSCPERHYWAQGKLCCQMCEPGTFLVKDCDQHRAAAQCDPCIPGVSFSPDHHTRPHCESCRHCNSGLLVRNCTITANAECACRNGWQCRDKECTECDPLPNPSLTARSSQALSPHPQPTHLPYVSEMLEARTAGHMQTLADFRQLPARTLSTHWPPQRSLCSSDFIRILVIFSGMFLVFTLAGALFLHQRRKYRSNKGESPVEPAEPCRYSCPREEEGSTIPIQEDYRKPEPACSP
The assay is described as above.
Method: as §5, §6

Assay [11] has as its target T10, P8A.
T10 construct: also called hCD27 P8A
T10 receptor chain: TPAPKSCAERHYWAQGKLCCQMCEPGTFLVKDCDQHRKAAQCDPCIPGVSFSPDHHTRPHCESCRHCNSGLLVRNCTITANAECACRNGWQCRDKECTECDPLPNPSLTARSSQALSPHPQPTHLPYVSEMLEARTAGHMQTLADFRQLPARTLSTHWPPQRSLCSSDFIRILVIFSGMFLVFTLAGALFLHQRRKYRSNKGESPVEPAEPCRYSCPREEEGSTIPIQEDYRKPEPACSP
Described as above.
Method: as §5, §6

B1: hCD27.131A (mouse parental 131A) (antibody, mouse IgG1, V domains shown)
VH: QIQLVQSGPELKKPGETVKISCKASGYTFTNYGMNWVKQAPGKGLKWMGWINTNTGEPTYAEEFKGRFAFSLETSATTAYLQINNLKNEDTATYFCAREGDAMDYWGQGTSVTVSS
VL: QIVLTQSPAIMSASPGEKVTMTCSASSSVSYMHWYQQKSGTSPKRWIYDTSKLASGVPARFSGSGSGTSYSLTISSMEAEDAATYYCQQWNSYPFTFGSGTKLEIK
notes: Mouse IgG1 antibody; also called mouse hCD27.131A
With B1, the binding result in [1] and in assay [2] was “binds” in each case. The EC50 in assay [3] came to 0.0194 nM; in assay [7], 0.0645 nM. The “binding, WT hCD27 = 100 (GM FITC)” value in [4] worked out at 80.5%; in assay [5] it was 62.1%; in assay [6], 108%; in assay [8], 50.3%; in assay [9] it was 54.1%; in assay [10] it was 48.2%. The “binding, WT hCD27 = 100 (GM FITC)” value in assay [11] was 44.9%.
